Source: patent WO2018135651A1 (dated 2018)

Target: T1, Human survivin (1-142 aa, N-terminal calmodulin tag, recombinant, #SUR0801, ATGen Co., Ltd.) (human, UniProt O15392 1-142)
T1 construct: range 1-142; Bought recombinant protein, used in solution at 100, 10 and 1 ng/mL; also called antigen; not shown: N-terminal calmodulin tag of the bought product
Assay: sandwich ELISA; VHH-STM complex adsorbed to the plate as capture, survivin in solution, detection with rabbit anti-survivin polyclonal antibody

T1 sequence (O15392 whole entry, the tested form may be a part): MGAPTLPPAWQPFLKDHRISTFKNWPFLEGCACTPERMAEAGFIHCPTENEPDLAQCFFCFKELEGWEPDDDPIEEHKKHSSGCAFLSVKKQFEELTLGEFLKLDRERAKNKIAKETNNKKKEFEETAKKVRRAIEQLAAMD

B1: VHH-STM complex (antibody complex consisting of an anti-human survivin VHH antibody and a stefin A mutant) (VHH)
VHH: EVQLVESGGGSVQAGGSLRLSCAASGVSNTDMIMIWFRQAPGKEREGVLAAIYKNSTYYADSVKGRFTISQDNAKNTVYLQMNSLKPEDTAIYYCAAIRAVIGRHIRPHIYWGQGTQVTVSS
notes: Single-chain fusion: anti-human survivin VHH, linker, stefin A mutant (STM), His tag, C-terminal Cys; Secreted from Brevibacillus choshinensis and Ni-NTA purified; Adsorbed directly to the plate as capture reagent; also called VHH-STM conjugate; VHH antibody-STM conjugate
binding result: binds
